Test [1] has as its target T1, SARS-CoV-2 RBD (receptor binding domain of the spike protein of SARS-CoV-2; Vazyme Biotech) (SARS-CoV-2, UniProt P0DTC2 319-541). Nature of the test: biolayer interferometry, ForteBio Octet RED96e, RBD 100 nM to 3.13 nM, 1:1 Langmuir model. In general terms: Biolayer interferometry detects binding as a change in optical thickness at a sensor tip.
The target of test [2] is T1, SARS-CoV-2 RBD (receptor binding domain …). Nature of the test: HTRF ACE2/RBD binding assay (665/620 ratio): Antibody 5-10 titrated, blocked ligand ACE2.
The target is the same in test [3]. In words: method not stated in this sentence (summary of Example 1); biolayer interferometry in Example 2.
Test [4] shares this target. In words: ELISA: SARS-CoV-2 RBD coated on the plate, Antibody 5-10 titrated, detected with anti-human IgG-HRP/TMB, OD450. Background: An ELISA detects its analyte on a solid surface through an enzyme-linked reagent.
The target in test [5] is SARS-CoV-2 spike (S) glycoprotein, wild-type, on pseudotyped virus (SARS-CoV-2, UniProt P0DTC2 14-1273). Nature of the test: cell-based or functional assay.

B1: Antibody 5-10 (antibody, V domains shown)
VH: EVQLLESGGGLVQPGGSLRLSCAASGFTFSSYAMSWVRQAPGKGLEWVSAIVGSGGSTYYADSVKGRFIISRDNSKNTLYLQMNSLRAEDTAVYYCAKSLIYGHYDILTGAYYFDYWGQGTLVTVSS
VL: DIQMTQSPSSVSASVGDRVTIPCRASQGIGNWLAWYQQKPGKAPKLLIYAASSLQSGVPSRFSGSGSGTDFTLTISSLQPEDFATYYCQQANSFPPFGQGTRLEIK
notes: also called anti-SARS-CoV-2 RBD Antibody 5-10; monoclonal Antibody 5-10
The term Kd denotes the equilibrium constant for the complex coming apart. Higher therefore signals lower affinity. Usually IC50 stands for the concentration that gives 50% inhibition. As a reminder, the EC50 is the concentration needed to bring the measured effect to its halfway point. Lower therefore signals greater potency. Regarding B1, the Kd in test [1] was 4.32 nM; in test [3] it was 4.31 nM. Further, in test [2], the IC50 came to 0.231 µg/mL. The molecule further gave an EC50 in test [4] of 0.0269 µg/mL. Moreover, the “IC50, neutralizing effects on SARS-CoV-2 pseudovirus” value in test [5] is 0.0425 µg/mL.

Source of the values: US20230399385A1 (NANJING VAZYME BIOTECH, published 2023).
